This is an account of results in the supplement of paper PMC7877785.

The series is described as follows: self-splicing fitness, log relative to wild type (ln ratio); higher = more splicing; Tetrahymena group I intron in knt gene, E. coli kanamycin selection, DiMSum; sequences stand for … in CUCUCU…GGAGGGAAAAGUUAUCAGGCAUGCACCUGGUAGCUAGUCUUUAAACCAAUAGAUUGCAUCGGUUUAAAAGGCAAGACCGUCAAAUUGCGGGAAAGGGGUCAACAGCCGUUCAGUACCAAGUCUCAGGGGAAACUUUGAGAUGGCCUUGCAAAGGGUAUGGUAAUAAGCUGACGGACAUGGUCCUAACCACGCAGCCAAGUCCUAAGUCAACAGAUCUUCUGUUGAUAUGGAUGCAGUUCACAGACUAAAUGUCGGUCGGGGAAGAUGUAUUCUUCUCAUAAGAUAUAGUCGGACCUCUCCUUAAUGGGAGCUAGCGGAUGAAGUGAUGCAACACUGGAGCCGCUGGGAACUAAUUUGUAUGCGAAAGUAUAUUGAUUAGUUUUGGAGUACUCGUGGUCG
The gist of the method: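 Pooled colonies went to amplicon sequencing on an Illumina HiSeq 2500 after six replicate transformations. The plates were LB agar with 100 μg/mL carbenicillin, 50 μM IPTG and 0.2% rhamnose, with or without 25 μg/mL kanamycin, incubated overnight at 37°C or 30°C. The E. coli BL21(DE3) library had all eight P1ex-region intron nucleotides randomised, the intron placed in the knt kanamycin-resistance gene on pET-22b(+). DiMSum fitness is the error-weighted combination of replicate fold changes, kanamycin against none, normalised to wild type.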

± gives the uncertainty stated by the source.

Regarding CAGUAGCAAUAUUACGAUUA, the “self-splicing fitness (ln)” value was -2.16 ± 0.13 (30 °C) and -1.73 ± 0.11 (37 °C). For AGUUAGCAAUAUUACGCUGG, the “self-splicing fitness (ln)” value (30 °C) was -3.07 ± 0.22. For GAUCAGCAAUAUUACGGCCC, the “self-splicing fitness (ln)” value runs as follows: (30 °C) -1.65 ± 0.21; (37 °C) -0.61 ± 0.2. On the same counts, the results for CUCGAGCAAUAUUACGACUU are -3.19 ± 0.19 and -1.73 ± 0.23.
